Measured values reported in patent US20230242902A1, “A HIGHLY ERROR-PRONE […] R[…] FOR TARGETED CONTINUOUS EVOLUTION IN VIVO” (The Regents of the University of California, priority 2017, published 2023).
Substitutions are numbered along the chain they refer to. In names and notes the source's numbering stands. Several values for one entry are separate records, joined by “and”; a condition that tells them apart may be missing. Identical values can stand only once.

Key:
Format in all cases: cell-based, S. cerevisiae
p2-encoded leu2* = test: p2 leu2* fluctuation tests in GA-Y021 (p2 mutation rate reporter strain); details: for change in p2 mutation rate by TP-DNAP1: GA-Y021, noncognate polymerase in trans, mutual orthogonality experiment
From the text: For fluctuation tests used to measure p2 mutation rates, leu2* served as a marker for detecting mutational events. leu2* is a disabled version of LEU2, where Q180 is replaced with a TAA stop codon. Q180 is a permissive site where mutation to any other codon other than TAG and TGA results in functional reversion to LEU2. These mutational events can be detected by plating scores of parallel cultures on medium lacking leucine and counting the number distribution of functional LEU2 mutants.
For TP-DNAP2 library screening, each library member was subjected to small-scale leu2* fluctuation tests with six replicates. 190 library members from each yeast library transformation were arrayed and inoculated into liquid SC medium lacking uracil and histidine, and passaged three times at 1:10,000 dilutions. mKate2 fluorescence was measured at every passage on a microplate reader (TECAN Infinite® 200 PRO, settings: λex=588, λem=633) to track p2 copy number stabilization. To perform fluctuation tests, each library member was diluted 1:10,000 into liquid SC medium buffered to pH 5.8 and lacking uracil, histidine, tryptophan, and dilutions were split into six 100 μL replicates. Cultures were grown for 48 hours at 30° C. to reach saturation. Saturated cultures were washed with 200 μL 0.9% NaCl to remove residual leucine and resuspended in 35 μL of 0.9% NaCl. 10 μL of this resuspension was spot plated onto solid SC medium buffered to pH 5.8 and lacking uracil, histidine, tryptophan and leucine. Spot plates were allowed to dry and incubated at 30° C. Colonies were counted after 5 days. Colony counts were used to calculate the expected number of LEU2 functional mutants (m), using the p0 method (Foster, 2006, Methods Enzymol, 409:195-213).
To precisely measure p1 and p2 per-base substitution mutation rates, several modifications were made to the small-scale protocol. First, 36 replicates were performed for reconfirmation of candidate TP-DNAP2 mutators, and 48 replicates for genomic and mutual orthogonality experiments. Titers were also determined for each strain after spot plating by pooling the residual volume from 4 replicates and plating dilutions on YPD. The expected number of LEU2 functional mutants (m) was determined by the Ma-Sandri-Sarkar maximum likelihood estimator (as calculated by the FALCOR tool and corrected for partial plating (Foster, 2006, Methods Enzymol, 409:195-213; Sarkar et al., 1992, Genetica, 85:173-179; Hall et al., 2009, Bioinformatics, 25:1564-1565). The mean mKate2 fluorescence was determined from 50,000 event counts on Attune™ NxT Flow Cytometer and converted to p2 copy number by using a calibration curve. To determine per-base substitution rates, the corrected m was normalized to the average cell titer, the p2 copy number, and the target size for functional leu2* reversion (2.33 bp). 95% confidence intervals were similarly scaled.
To identify error-prone TP-DNAP2s, a small library of TP-DNAP2s diversified at locations hypothesized to be responsible for DNAP fidelity was screened. […] Four distinct site-saturation mutagenesis libraries were generated, each diversifying S370, Y424, L474, or F882 in TP-DNAP2 encoded on pGA55-reTP-DNAP2. Due to unsuccessful attempts to generate a strain with a full deletion of p2-encoded TP-DNAP2 and simultaneous integration of mKate, URA3, and leu2*, each library was transformed into GA-Y021 for convenient screening. However, since GA-Y021 still encodes wt TP-DNAP2 on p2-delORF1-mUL*, p2 mutation rates measured in this format are the result of in tandem replication of p2 by wt TP-DNAP2 and each TP-DNAP2 variant encoded in trans. 6-fold coverage of each library was maintained by picking 190 yeast colonies and passaging under selection for URA3 to stabilize the copy number of p2-delORF1-mUL* in the presence of the newly introduced TP-DNAP2 variants. […]

p1-encoded leu2 (Q180*) = test: qPCR measurement of p1-encoded leu2 (Q180*) copy number; details: qPCR-determined p1 copy number, OR-Y24 strains
Protocol: A calibration curve was established to correlate p1 copy number, determined via quantitative PCR (qPCR), with fluorescence of p1-encoded mKate2 (Table 1). Five TP-DNAP1 variants representing a wide range of copy numbers were transformed into ORY24 and passaged until w.t. p1 was displaced. The five OR-Y24 strains were grown to saturation, diluted 1:10,000 to mimic p1 fluctuation tests, and grown in triplicate 100 μL cultures and duplicate 40 mL cultures. 100 μL saturated cultures were subject to fluorescence measurement of mKate2 (ex/em=561 nm/620 nm, bandwidth=15 nm) on a flow cytometer (Invitrogen Attune NxT). Whole-cell DNA extracts were prepared from 40 mL cultures and used as templates for qPCR measurement of p1-encoded leu2 (Q180*), as described previously (Ravikumar et al., 2014). p1-encoded LEU2 was PCR amplified with qPCR-Leu2F and qPCR Leu2R; and genomic LEU3 was PCR amplified with qPCR-Leu3F and qPCR-Leu3R using SyBR Green (Fisher Scientific) master mix.

genomic URA3 gene = test: Fluctuation tests of the genomic URA3 gene in the presence of TP-DNAP1 variants; details: for Yeast genomic substitution mutation rate: URA3 locus, strain harbouring p1 and the TP-DNAP1 variant
Protocol: Fluctuation tests of the genomic URA3 gene were performed to determine genomic per-base substitution rates, as previously described (Ravikumar et al., 2014). Fluctuation data were analyzed by the maximum likelihood method, as described for large-scale p1 fluctuation tests. Phenotypic mutation rates were divided by the target size for loss of function of URA3 via base pair substitution (Lang et al., 2008), to yield per-base substitution rates. 95% confidence intervals were similarly scaled by these factors. All data related to genomic URA3 fluctuation tests are fully described in Table 5.

B1: TP-DNAP1-4-2: TP-DNAP1 variant (L477V, L640Y, I777K, W814N), encoded by SEQ ID NO:11 (protein, listed as Kluyveromyces lactis)
chain: MDYKDKALNDLRNVYADFDSLPLDFRQILIKDRATLLQKEDVEKKILERQEDAKKYAEYLKQSEIPERISLPNIKRHKGVSISFEETSEDMVLEPRPFIFDGLNIRCFRRETIFSLKNKILNMVKESSSFKNVSRQSVSFMYFKIFNKGKVIASTKSVNIYEDKIDERLEDLCNNFDDVLKKIIDVTYGYESLFVSETYSYVIFYAKSIYFPQPRCVNNWGNNIPNILTFDSFKLFTANKNNVSCIKQCSRFLWQKDFNTLEEMIEYKNGNICIVTPQLHINDVRDIKSFNDIRLYSESPIKTFSVIDNTITYLFYFKEHLGVIFNITKSRHDRRVTKFSPLSKFSDVKNITVCFDIESYFDPEKESNQVNIPFICCASIIYNKVIGNIVDFEGRDCVAQMIEYVVDICGELNISSVELIAHNGGGYDFHYILSSMYNPAAIKNILIRNNSFISFNFAHDGVKFSVKDSYSFLLCSVANASKAFLNEETFKKTDFPHHDLKTADDLYKVYKEWSSVNTEINHVVEKEKLLITSEHIVNFTKNDKSKTLIEWSKDYCRNDVLVLSKVWLEFKNAVEDIFNCELVDQTMTLAGLSYKLFQANMPFDVELRHPNKEDYFNMREALIGGRCISVNGIYKDVLCYDVKSLYPASMAFYDQPYGSFKRVSSRPKDELGIYYVRVTPNRNNKSNFFPIRSHNKITYNNFEESTYIAWYTNVDIDIGLSEGHNIEYIPFDSYGNIGYSWSKKGKIFEKYIKDVLYKLKIKYEKQNNKVKRNVIKKIMNSLWGKFAQKWVNFEYFIKSEDDIDFESEEAYKINDTDFMLIKKIKESTYSSKPIQNGVFTLSWARYHMKSIWDAGAKEGAECIYSDTDSIFVHKEHFKKNAKFMLNGLKVPIIGSEVGQLELECEFDKLLCAGKKQYMGFYTYFQDGKPCIKEKKRFKGIPSNYIIPELYAHLLSGADKEAKIQFLKFRREWGSVKGYIENKTVKAT
Q: How did the “change in p2 mutation rate by TP-DNAP1” value (p2-encoded leu2*) turn out when B1 was run?
A: no statistically significant change

Q: And the “Average leu2 (Q180*) copy number per cell” value (p1-encoded leu2 (Q180*); L640Y, I777K, W614N)?
A: 16.9 and 15.6

Q: What about the “genomic mutation rates in the presence of p1 replication” value (genomic URA3 gene) of the same molecule?
A: remain unchanged

Q: What about the “Yeast genomic substitution mutation rate” value (genomic URA3 gene) of the same molecule?
A: 1.98 × 10^−10 s.p.b.

B2: w.t.: wild-type Kluyveromyces lactis DNA polymerase TP-DNAP1, SEQ ID NO:1 (protein, listed as Kluyveromyces lactis)
chain: B1 chain with V477L, Y640L, K777I, N814W
Q: What does the source list for B2?
A: change in p2 mutation rate by TP-DNAP1 (p2-encoded leu2*): no effect; Average leu2 (Q180*) copy number per cell (p1-encoded leu2 (Q180*)): 68.9 and 88.1; Yeast genomic substitution mutation rate (genomic URA3 gene): 8.73 × 10^−11 s.p.b.

B3: WT: wild-type Kluyveromyces lactis DNA polymerase TP-DNAP2, SEQ ID NO:13 (protein, listed as Kluyveromyces lactis)
chain: MNDELAFLNSQIDDYSDDIEFLRTEVFRINRYSKSIYSLMKNSSKEAIKETIEFNKYGQEIHSKIKEKEISLIEAIKLMEKKYKYLRSLNKTKDKSKKKKIHTKDIETLKTIYKTKADFDIRNFKNAETFTYENYSLLIPSEKELIDLIPEIEEDYSYYFYVSLTITGPTIFGGVTRKVPIIDTYGDINKDFYNKIKENITKVLDRVPFYEEKESEIICKKVLITLTVNKWESIDKWYKNVKSKSKKFKDFTLFLASDTSKNCVQQCVEYLGGKWNTNYSLEKMIPQQKIVTYIPLLMDIQYVQSMEDLISDFDEPNTDCKNIARLLKWNGHMGVITKIDKDVKINRIQRKRIIDVENKEVKEVFFDIESFSDETKHQIPYLICWSYLGELYYRTGKNCIKEFVEEILSYNVDIILYAWYGSGYDYQHVLPYMKSKCIKDKYIIKNNMITYGELYYENAIIYLKDPYLFILTSLDKASKAFNVINKGEFPHSIIHSWEDLNKILPNWVKIQKRMIEYKDDNKLNIYYKNIEIFENDRNYNTILENAIEYCKVDVLAMEKVWIKFKKLLEKNLNITVSVKTFTLSQLSMKIMESKLPKYVKLYVPTLEEYSKIRNAIYGGRVISKNGIYEENIVYADVVSLYPSAMKLLKHSYGKPKLVDYIDFEKHGIYRVTLLNKHDQEPKNYLNFVPRRINRKLTWEWFKIHEGWYHTYDLIIAKSEGFDIYCHEGFEYPEKDYIFNDFIDTLYSMKETHTACSCEEQPCPIRMVAKIALNGGGYGKFVQKPIDKEIYIVKRDVVAGECDKLQENENGEICIGKRLVKRPLFYNLDSENYDKMIIEKEDEPIYSTQCGISILSASRYRLYKLCKQFENIDIIYSDTDSIFVKQKSVDWELFKSKCGSELGQLDSTIDDTKNAIISKMYIGGAKMYAFEYLNNKNKLITKLHCKGVPNYMLSLNQFKYLMESPDNTIAYKFEIIRRKLVNVITKDLIKDIKQT
Q: How did the “specificity for p2 over p1” value (p2-encoded leu2*) turn out when B3 was run?
A: at least 29 fold

Q: And the “mutation rate of p2-delORF1-mUL* replication” value (p2-encoded leu2*; GA-Y021, wt TP-DNAP2 encoded on p2)?
A: 5.96×10^−10 s.p.b.
